The supplement of paper PMC10724198
± gives the standard deviation of the averaged measurements.

Tested on: Saccharomyces cerevisiae
Test: protein stability index of tFT-peptide fusion (C-terminal peptide) (PSI (0-1 scale)); higher = more stable (slower turnover)
Details: genetic background: wild type; temperature: 30 C
Experimental: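 Multiplexed protein stability (MPS) profiling in S. cerevisiae. Random 12-aa peptides (tFT-X12 library) are fused to the C-terminus of a sfGFP-mCherry tandem fluorescent timer, after mCherry and a GGGS linker. Cells are FACS-sorted into 8 mCherry/sfGFP bins and deep-sequenced. The protein stability index (PSI) is the read-weighted bin average, scaled from 0 (unstable) to 1 (stable). Only peptides with >10 reads are reported; cells were grown at 30 °C in SC-His with glucose.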
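Note: PSI is a weighted mean of sequencing reads over stability bins, variants kept only with over 10 reads, mCherry proximal and sfGFP distal, peptide attached via GGGS linker.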

Sequence	protein stability index
GVWVGAVRGRYG	0.6625 ± 0.0061
GVYFMGVLGREG	0.655 ± 0.067
GVYVGWFMRSGG	0.678 ± 0.015
GWAGRCAPGRVG	0.637 ± 0.093
GWCPNRRSGVWV	0.7285 ± 0.0032
GWCVWGVFSTAL	0.631 ± 0.033
GWEVGRGRLGVV	0.696 ± 0.095
GWFVGLVSRSLH	0.67 ± 0.019
GWFVVYQIGSEV	0.564 ± 0.063
GWGGGGGAGGSV	0.683 ± 0.018
GWGGGGGAWKGV	0.736 ± 0.072
GWGPGGSERCGL	0.711 ± 0.025
GWLRGVCFCSWG	0.73 ± 0.037
GWQCGVNRGGWW	0.752 ± 0.057
GWSVGQSEMNTY	0.73 ± 0.056
GWVFLRVARFGL	0.684 ± 0.045
GWWCGGGGAWSG	0.719 ± 0.041
GWWGCGGWGFVG	0.624 ± 0.05
GYAGAIMAGYDP	0.656 ± 0.033
GYATVILYPSID	0.653 ± 0.029
GYDLSASRALLA	0.65 ± 0.019
GYLNSCADKNKV	0.664 ± 0.028
GYMFLSFLKLCW	0.599 ± 0.021
GYPRPLPYTPST	0.687 ± 0.023
GYPSLYCLSVFM	0.6155 ± 0.0058

Sequence	protein stability index
GYRGRDETNATN	0.65 ± 0.025
GYRNIEYGFGSG	0.575 ± 0.061
GYRVNIDIKIVY	0.5247 ± 0.0031
GYVLVLGVKGGL	0.648 ± 0.032
HAIPAPDLYHTQ	0.651 ± 0.09
HAPAPPLPTIYP	0.668 ± 0.094
HAPRSPCLPFPP	0.687 ± 0.047
HASPPPDASPPL	0.687 ± 0.022
HCVSPKPFLKSE	0.695 ± 0.045
HDQKVPRERRTR	0.699 ± 0.025
HDRRKAFHVVWL	0.663 ± 0.039
HDSMTQEPQNSA	0.65 ± 0.065
HDSRIDIASFHV	0.716 ± 0.024
HEDIPGSTYTIN	0.734 ± 0.033
HFLSCVGSLWFH	0.741 ± 0.0087
HGGCLGGYGGGG	0.661 ± 0.036
HGLLLRDRPLPT	0.665 ± 0.024
HGLVLLCINDIV	0.6312 ± 0.001
HGSDTSIALRSG	0.622 ± 0.038
HHHPGQKCKIKG	0.731 ± 0.016
HHLPPRTPPHNS	0.657 ± 0.037
HHQVVPDVSLVS	0.6585 ± 0.0013
HHTQPLKSIKKN	0.708 ± 0.037
HIFAQSFLNIRI	0.709 ± 0.04
HIGVVSIERLTS	0.576 ± 0.021

Sequence	protein stability index
HIHKKGPSGHQK	0.696 ± 0.028
HIPPPPRPSAPP	0.69 ± 0.04
HLGRRSGAQGLF	0.699 ± 0.06
HLPPFSGIHLTP	0.719 ± 0.011
HLPPLHRLSPPI	0.668 ± 0.04
HLPPPPSPPPPP	0.68 ± 0.051
HLPPSSPPLAVI	0.68 ± 0.009
HLPRRAAILNEF	0.709 ± 0.049
HLPSPPPPPSRL	0.744 ± 0.031
HLSCVSVSVRGS	0.629 ± 0.015
HLSNSCLHGVSG	0.6484 ± 0.00096
HLSPPLPPAPTS	0.7022 ± 0.0063
HLSPPPLPPLTS	0.696 ± 0.037
HLVLIHPTQTLN	0.634 ± 0.045
HMQCVFRSTHHR	0.585 ± 0.054
HNGRAARAYLCW	0.65 ± 0.046
HNRADKLQTTIE	0.69 ± 0.033
HPARPRPRLALS	0.666 ± 0.043
HPGPFSTTWHPT	0.743 ± 0.068
HPHRSAIIAGNH	0.72 ± 0.0083
HPLLTPTPHKPD	0.699 ± 0.11
HPLPPPLLPSPA	0.659 ± 0.096
HPLVASRLSPFP	0.761 ± 0.07
HPPHLSTPPYPP	0.722 ± 0.047
HPPLPRPPPVPH	0.683 ± 0.019

Sequence	protein stability index
HPPPDPLPSRPS	0.765 ± 0.093
HPPPHPPFPPRF	0.73 ± 0.016
HPPPLVPSPSTQ	0.749 ± 0.067
HPPSPPPPAPSC	0.738 ± 0.02
HPRLLLYLPTSS	0.726 ± 0.1
HPRRRPPPPSFP	0.611 ± 0.023
HPSEPCKSQILL	0.712 ± 0.027
HPSLSDLIVLCR	0.51 ± 0.01
HPTLPLLSHPTS	0.798 ± 0.14
HPTSPDPLVTPL	0.737 ± 0.068
HPYTPLLSRLSP	0.708 ± 0.0077
HQFRPYPLFTAR	0.733 ± 0.013
HQLHLMRDSIRN	0.716 ± 0.021
HRCVQFMNWVAF	0.735 ± 0.045
HRDRPYTPLSRF	0.722 ± 0.13
HRKKTKNVTHVK	0.6485 ± 0.0062
HRNPNLPFPPPL	0.74 ± 0.069
HRTSSCESSPLA	0.737 ± 0.076
HSAVRMGTRGRG	0.715 ± 0.049
HSCPVCVGWNYS	0.654 ± 0.047
HSDRPSPTRPQP	0.6431 ± 0.0029
HSHAGIGPVVTR	0.672 ± 0.0077
HSHKHTREDTVL	0.657 ± 0.036
HSPASLPHLSGK	0.728 ± 0.063
HSPPPLPLPTHP	0.719 ± 0.077

Sequence	protein stability index
HSSALFSSRLRF	0.7223 ± 0.0036
HVAETRLRDHGW	0.714
HVGEVERGGMGG	0.7157 ± 0.0021
HVPGGRADMTRS	0.706 ± 0.0097
HVRARLVVHQRA	0.631 ± 0.047
HVRSPLRRVEKF	0.6988 ± 0.006
HVSSKMEWGNRD	0.763 ± 0.066
HVTGFVQRYLCH	0.711 ± 0.092
HWPSGGGGPASH	0.753 ± 0.037
HWRCASLTLSAG	0.8 ± 0.02
HYYYPSPPSSRH	0.621 ± 0.042
IACSLSSFSPVW	0.687 ± 0.031
IAKAVCESLCLQ	0.7146 ± 0.0063
IALPPPGILDSA	0.683 ± 0.16
IALPPPLLPPSL	0.706 ± 0.051
IALTSCVPDLSF	0.6911 ± 0.0037
IAQVDLPDRMKT	0.6937 ± 0.0061
IARYLGRYERNV	0.687 ± 0.042
IAVHLSVSSRSW	0.616 ± 0.035
ICRGGLWGVCVG	0.581 ± 0.0097
ICRGGYELLELG	0.68 ± 0.026
ICVAVESRVSRG	0.628 ± 0.046
ICYGIHYAQRGS	0.646 ± 0.069
ICYGLHVPARRR	0.63303 ± 0.00013
IDDITMYRKKYR	0.66 ± 0.047

Sequence	protein stability index
IDKGENTGKHRL	0.673 ± 0.027
IDLISENDNAVG	0.709 ± 0.021
IDMGEQTGKMIN	0.72 ± 0.012
IDSCFKEVAYGK	0.625 ± 0.014
IEDEHLEDAPYG	0.678 ± 0.048
IEETKDYTRKRQ	0.6484 ± 0.0034
IEGEVRKIGNPT	0.681 ± 0.086
IEHYPVSSPKMR	0.623 ± 0.079
IERCGIVKEVKG	0.74 ± 0.012
IFINAGGYTHTN	0.726 ± 0.067
IFSPHRPAVALV	0.626 ± 0.073
IFWGFSFRGWAC	0.656 ± 0.0067
IFWLFLPSVPFL	0.702 ± 0.12
IGARLMVGASRK	0.775 ± 0.16
IGFGPVSCARLF	0.679 ± 0.11
IGGLSLGESIGG	0.689 ± 0.02
IGLTVICHFMNV	0.576 ± 0.05
IGNKLSKMIDTS	0.665 ± 0.053
IGQCYLRHRGMS	0.5544 ± 0.0053
IGRRSRALKITE	0.629 ± 0.03
IGSRRMDADERV	0.691 ± 0.026
